From PMC2583301 come the findings set out here.

Assay [1] has as its target yNap1 C200A/C249A/C272A labelled with Alexa dye at Cys-414 (yNap1m*) (yeast) (UniProt P25293). Kind of assay: other fluorescence titration.
Assay [2] addresses H2A refolded in the absence of H2B (Xenopus laevis) (UniProt P06897). Kind of assay: AUC.
For assay [3], the target named is H2A/H2B(T112C) dimer, H2B labelled with Alexa dye (Xenopus laevis) (UniProt P06897). Kind of assay: other fluorescence titration.

Sequence of yNap1 C200A/C249A/C272A labelled with Alexa dye at Cys-414 (yNap1m*) (yeast) (P25293 whole entry C200A/C249A/C272A): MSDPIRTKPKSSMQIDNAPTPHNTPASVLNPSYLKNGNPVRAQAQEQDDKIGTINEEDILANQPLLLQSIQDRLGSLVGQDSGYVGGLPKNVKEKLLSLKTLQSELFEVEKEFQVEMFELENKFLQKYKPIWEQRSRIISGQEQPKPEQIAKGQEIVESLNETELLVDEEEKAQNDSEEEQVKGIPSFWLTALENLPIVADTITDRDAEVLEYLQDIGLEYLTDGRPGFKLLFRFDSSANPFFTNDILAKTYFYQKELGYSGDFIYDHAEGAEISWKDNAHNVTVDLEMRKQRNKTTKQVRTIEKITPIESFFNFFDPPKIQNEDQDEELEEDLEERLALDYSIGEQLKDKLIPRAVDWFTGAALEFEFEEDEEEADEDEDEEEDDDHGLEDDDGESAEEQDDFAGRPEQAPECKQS
Sequence of yeast nucleosome assembly protein 1 (yNap1), wild type (P25293 whole entry): as the sequence (P25293 whole entry C200A/C249A/C272A) above, with A200C, A249C, A272C counted along it

On to “Tailless H2A/H2B dimer (from UniProt P06897 15-119) (complex)”, for which the Kd in assay [1] was 2.1 nM. That is a single-digit nanomolar value. The substance “H2A/H2B dimer (major type, wild type) (from UniProt P06897;P02281) (complex)” registered a stoichiometry N (H2A/H2B dimer per yNap1 monomer) in assay [1] of 1.

In assay [2], “H2A refolded in the absence of H2B (from UniProt P06897 1-130) (natural protein)” had a stoichiometry N of 2.

In assay [3], “yeast nucleosome assembly protein 1 (yNap1), wild type (from UniProt P25293 1-417) (natural protein)” showed an equilibrium dissociation constant (Kd) of 1.3 nM and a Kd app (yNap1 counted as dimer) of 700 pM.
